Biological target: the molecule itself
Assay: crystal structure

B1: mouse 2,4-Dienoyl-CoA reductase 1 (Decr1) (enzyme, UniProt Q9CQ62 35-335, looked up)
chain: SKDAPQSKFFQPVLKPMLPPDAFQGKVAFITGGGTGLGKAMTTFLSTLGAQCVIASRNIDVLKATAEEISSKTGNKVHAIRCDVRDPDMVHNTVLELIKVAGHPDVVINNAAGNFISPSERLTPNGWKTITDIVLNGTAYVTLEIGKQLIKAQKGAAFLAITTIYAESGSGFVMPSSSAKSGVEAMNKSLAAEWGRYGMRFNIIQPGPIKTKGAFSRLDPTGRFEKEMIDRIPCGRLGTMEELANLATFLCSDYASWINGAVIRFDGGEEVFLSGEFNSLKKVTKEEWDIIEGLIRKTKGS
With B1 the “stoichiometry N” value was 4.
